Data set [1] deals with the molecule itself. The experiment in a line: non-reducing SDS-PAGE; self-association through disulfide bonds.
Data set [2] deals with the molecule itself. The experiment in a line: size-exclusion chromatography and non-reduced SDS-PAGE with NEM; self-association. In general terms: In gel filtration, larger molecules generally elute earlier.
Data set [3] can be described thus: Storage stability of purified protein, reduced and non-reduced SDS-PAGE. The data set is classed as physicochemical. The protocol: The purified wild type hCD83ext, when prepared as described in Example 1 and formulated either in the presence or absence of 50% glycerol, degraded when stored at 4° C., perhaps due to an intrinsic instability of this biomolecule. […] Generally, the dimer composition increased monotonically with the sample age, indicating the progressive conversion of monomer to dimer under this storage condition. Note that there were at least two different monomer forms (lane 6, FIG. 6) and three different dimer forms (lanes 3 and 7, FIG. 6) derived from various sample preps.

In data set [4] the test system is heterotopic cardiac allograft. Kind of data set: C57BL/6-to-BALB/c mouse heart transplant model (murine heterotopic cardiac allograft). It counts as in vivo. The note with it: for extension of allograft survival compared to untreated controls / mean survival time of graft: monotherapy; for mean survival time of graft: 100 ug per mouse per day for 8 days, untreated mean 8 days. As for the experimental part: Animal model: C57BL/6-to-BALB/c Mouse Heart Transplant Model
Male adult C57BL/6 (H-2b) were used as donors and BALB/c (H-2d) mice were used as recipients (Jackson Laboratories, Bar Harbor, Mass.). Intra-abdominal heterotopic cardiac transplantation was performed as previously described (Corry et al. (1973) Transplantation 16(4):343-350 and Wang et al. (2007) J Immunol 179(7):4451-4463). In this study, transplant surgery involved transfer of fully MHC-mismatched hearts from C57BL/6 donors to BALB/c recipients, such that the autologous heart as well as the allogenic heart was present in the recipient.
Cardiac transplant recipients were treated as follows: Group I (five recipients) received no treatment. Group 2 (3 recipients) received hCD83ext-m3 monotherapy by i.v. at 100 μg/mouse/day, from −1 to +7 POD. […] Cardiac transplant survival was measured in the number of postoperative days (POD) that the allogenic heart continued to beat.
Cardiac transplant recipients were treated as follows: Group 4 (4 recipients) received hCD83ext-wt (SEQ ID NO:5) monotherapy by i.v. at 100 μg/mouse/day, from the day prior to transplantation until graft rejection.

Data set [5] concerns rat renal allografts. Kind of data set: Rat renal transplant model of chronic rejection (F344 to Lewis). The data set is classed as in vivo. The settings on record: POD 140; with CsA, compared to CsA alone; FIG. 37. The protocol: F344 rats served as renal donors to Lewis rats. […] Transplant recipients were sacrificed on POD 140 and transplanted kidneys were assessed for indications of chronic rejection by histology and immunohistochemistry. Renal histology was scored by an independent pathologist assessing tubular atrophy, glomerular atrophy, interstitial fibrosis, intimal thickness, cell infiltrates and cortical scarring on a scale of 0-4, wherein 0=normal, 1=minimal change, 2=mild change, 3=moderate change and 4=marked change.

The test system of data set [6] is TNFα production by LPS/IFN-γ stimulated human PBMCs. Kind of data set: Inhibition of TNFα production by LPS/IFN-γ stimulated human PBMCs. It counts as cell-based. The settings on record: FIG. 30; four m3 preparations (pH 4.5, 5.5, 7.6) vs wild type ARG-021 in PBS pH 7.6. An excerpt: The improved stability/activity of hCD83ext-m3 as compared to hCD83ext wild type was confirmed in a similar assay using human PBMCs.

Data set [7] is described as follows: Dimerization by size-exclusion chromatography and non-reduced SDS-PAGE with NEM pretreatment. The data set is classed as physicochemical. The note with it: SEC and non-reduced SDS-PAGE with NEM; FIGS. 20, 21. An excerpt: Using exactly the same fermentation and downstream processing protocols as those for wild-type hCD83ext and CD83m-5, CD83m-3 was produced and purified. […] Purified CD83m-3 was subjected to structural characterization using SDS-PAGE (FIG. 15), CD (FIGS. 16 and 17), and spectrofluometry (FIG. 18) with results similar to wild-type hCD83ext and CD83m-5. Note that a clear and reproducible doublet was observed on non-reduced SDS-PAGE (FIG. 15). Also, note that none of these two bands corresponding to the CD83m-3 doublet appeared to have an identical mobility to the monomer species of CD83m-5, but the upper CD83m-3 band appeared to have an identical mobility to the monomer species of the wild-type hCD83ext (FIG. 19). To avoid potential disulfide bond scrambling during the sample preparation for non-reduced SDS-PAGE, the protocol was modified by pretreatment of the sample with N-Ethylmaleimide (NEM). NEM alkylates free thiol groups on cysteine residues that have not formed disulfide bonds, and thereby prevents subsequent disulfide bonding by that cysteine residue. It appears that the modified protocol using NEM provides a more reliable and consistent method for quantification of CD83 dimers by preventing any potential disulfide bond scrambling and the CD83 monomer is observed as a single band, rather than as a doublet (FIG. 20). […]

Data set [8] relates to kidney allografts from C57BL/6 mouse donors. Kind of data set: Mouse orthotopic kidney transplant model. The data set is classed as in vivo. The note with it: monotherapy 100 μg/mouse/day i.v., day -1, day 0 and seven POD; untreated MST 31±4.9 days. As for the experimental part: The mouse orthotopic kidney transplant model (see Zhang et al. (2005) Microsurgery 16(2):103-109) was used to assess the ability of hCD83ext-m3 to induce allograft tolerance. BALB/c mice received kidney allografts from C57BL/6 mouse donors. Recipient mice were either untreated (two mice) or received hCD83ext-m3 (3 mice; 100 μg/mouse/day, i.v.) one day prior to transplantation (day −1), the day of transplantation (day 0) and for seven days post operative days (POD). The two untreated mice survived for 28 and 35 days, giving a mean survival time (MST) of 31±4.9 days. The three mice treated with hCD83ext-m3 each survived for more than 100 POD. Accordingly, monotherapy with hCD83ext-m3 leads to long-term allograft acceptance in the mouse orthotopic kidney transplant model.

For data set [9], the system named is TNFα production by LPS/IFN-γ stimulated peripheral blood mononuclear cells (PBMCs).
Protocol: The ability of the wild type and mutant hCD38ext to inhibit TNFα production by LPS/IFN-γ stimulated peripheral blood mononuclear cells (PBMCs) was evaluated in an in vitro assay using PBMCs from cynomologus monkeys. Specifically, cynomologus PBMCs were isolated and pretreated 12 hours with different concentrations (0.5, 5, 25 and 100 μg/ml) of hCD83ext wild type (formulated at pH 4.5 or 5.5), hCD83ext-m3 or hCD83ext-m5 (501-1). hCD83ext-m3 and hCD83ext-m5 were formulated at pH 5.5 or 7.6, respectively. The cells were then activated for 6 hours with LPS (1 μg/ml) plus IFN-γ (100 U/ml) in the presence of Brefeldin A (4 μg/ml) and then intracellularly stained for TNFα using a commercially available Fix/Perm kit. Flow cytometry acquisition and analysis of the amount of TNFα production was evaluated using either myeloid dendritic cells or monocytes. The results are expressed as % of mDC or monocytes producing TNFα and in Mean Fluorescence Units (MFU), which represents the levels of TNFα on a per cell basis.
hCD83ext wild type protein originally formulated at pH 7.6 (data shown FIGS. 26 and 27) was buffer exchanged into a buffer with a pH of 4.5 or 5.5 and re-tested as described above for the ability to inhibit TNFα production by LPS/IFN-γ stimulated cynomologus PBMCs in vitro.
The mark [10] stands for this setting: FIG. 26, 0.5, 5, 25 and 100 μg/ml, wild type at pH 4.5 or 5.5, m3 at pH 5.5, m5 at pH 7.6.

Changes are numbered by the printed parent chain. In names and notes the source's numbering stands. Read-outs that look alike come from different tables or passages of the source.

The text below walks through data of patent US20110182903A1, “NOVEL SOLUBLE CD83 POLYPEPTIDES, FORMULATIONS AND METHODS OF USE” (priority 2008, published 2011).

B1: wild type hCD83ext (human CD83 extracellular domain with N-terminal Gly-Ser-Pro-Gly and C-terminal Ile, purified from E. coli) (receptor)
chain: GSPGTPEVKVACSEDVDLPCTAPWDPQVPYTVSWVKLLEGGEERMETPQEDHLRGQHYHQKGQNGSFDAPNERPYSLKIRNTTSCNSGTYRCTLQDPDGQRNLSGKVILRVTGCPAQRKEETFKKYRAE
notes: It carries four extra N-terminal residues and the first transmembrane residue (Ile); Not glycosylated (made in E. coli); Preparations hold monomer and disulfide-linked dimers and multimers; also called hCD83ext-wt; hCD83ext wild type
As for B1, in [1], the binding result is on record as “binds”.

B2: hCD83ext-m5 (hCD83ext with the fifth cysteine, position 114 of SEQ ID NO:5, mutated to serine) (receptor)
chain: B1 chain with C114S
notes: also called CD83m-5; hCD83m-5
B2: the binding result in data set [2] is recorded as “binds”.

B3: hCD83ext-wt: recombinant human sCD83 (CD83 extracellular domain) purified from E. coli, wild type form, SEQ ID NO:5 (protein)
chain: GSPGTPEVKVACSEDVDLPCTAPWDPQVPYTVSWVKLLEGGEERMETPQEDHLRGQHYHQKGQNGSFDAPNERPYSLKIRNTTSCNSGTYRCTLQDPDGQRNLSGKVILRVTGCPAQRKEETFKKYRAEI
modifications: Synthetic extracellular domain of human CD83 with the addition of Gly-Ser-Pro-Gly at the N-terminus and Ile at the C-terminus
With B3, the degradation on storage entry in data set [3] (stored at 4° C., with or without 50% glycerol) is recorded as “degraded”. Further, the degradation on storage result in [3] (stored at -20° C.) is “completely prevented degradation”. In addition, in data set [3] (stored at -20° C., frozen), the “dimerization on long-term storage” value is recorded as “dimerization could still occur”. In addition, the “MST ± SD” value in data set [4] (Table 8, hCD83ext-wt 100 μg/mouse/day i.v., CsA 15 mg/kg/day s.c.) was found to be 15.8 ± 1.0 days. Besides, the mean survival entry in data set [4] (in combination with cyclosporine, glycerol omitted) is recorded as “approximately 14 days”. Also, the long-term graft survival in data set [4] (in combination with cyclosporine, stored in 50% glycerol, final glycerol concentration 8%) was greater than 100 days. Besides, in [4], the “extension of allograft survival compared to untreated controls” value is “approximately 2 fold” and the “mean survival time of graft” value is reported as “approximately 14 days”.

B4: hCD83ext-m3: m3 mutant form of human sCD83; SEQ ID NO:7 with Cys at 12, 20, 92, 114 and Ser at 85 (protein)
chain: B3 chain with C12X, C20X, C85X, C92X, C114X
modifications: Synthetic extracellular domain of human CD83 with the addition of Gly-Ser-Pro-Gly and the N-terminus and Ile at the C-terminus
Turning to B4, in data set [5], the “immunohistochemistry grading in renal allografts (IgG, IgM deposits; CD2, CD4, ED-1 infiltration)” value was “significantly (p<0.05) improves immunohistochemistry grading”. Moreover, the “ability to inhibit TNFα production (relative activity)” value in data set [6] was “outperformed hCD83ext wild type”. In addition, in data set [7], the dimerization entry is reported as “absent or minimal”. In addition, the “synergy with CsA and operational tolerance” value in data set [4] (3 doses on days -1 to +1 plus CsA, CsA withdrawn at day 50, data not shown) was “full synergy with CsA, but incomplete operational tolerance”. Besides, the “MST ± SD” value in data set [4] (Table 7, hCD83ext-m3 100 μg/mouse/day i.v. -1 to +7 POD, CsA 15 mg/kg/day s.c. daily) was found to be 13.7 ± 0.6 days. Further, in [4] (combination therapy with CsA, CsA withdrawn at day 28, data not shown), the “allograft tolerance after CsA withdrawal” value is on record as “does not lead to permanent allograft tolerance”. Also, in [4], the “extension of allograft survival compared to untreated controls” value is on record as “approximately 2 fold” and the “mean survival time of graft” value was “approximately 14 days”. For the same molecule, in data set [4] (plus CsA until POD 50, hCD83ext-m3 100 μg i.v. days -1 to +7, data not shown), the “allograft tolerance after cessation of daily CsA therapy” value was “complete allograft tolerance”. For the same molecule, the “survival of kidney allograft recipients” value in data set [8] is “more than 100 POD”. Besides, the “ability to inhibit TNFα production (relative activity)” value in [9] (setting [10]) was “more active than the m5 mutant”.

B5: hCD83ext-m5: soluble CD83 mutant, fifth cysteine of SEQ ID NO:5 mutated to serine, SEQ ID NO:6 (WO2004/046182) (protein)
chain: B3 chain with C114S
modifications: Synthetic extracellular domain of human CD83 with the addition of Gly-Ser-Pro-Gly and the N-terminus and Ile at the C-terminus, with Cys to Ser (C2S) mutation at position 114
Consider B5, for which the dimerization result in data set [7] was “significant”. Also, the “mean survival time of graft” value in data set [4] was “approximately 14 days”. The “ability to inhibit TNFα production (relative activity)” value in data set [9] (setting [10]) is on record as “more active than the wild type hCD93ext”; in [9] (FIG. 27, proteins formulated at pH 7.6) it was “outperformed two preparations of hCD83ext wild type”.
